Data taken from patent US20030008808.

Tested on: 30S ribosomal subunit (activated, mRNA-programmed; ribonucleoprotein)
Assay: filter
Conditions: CMN buffer

In the case of human ASLLys3(SUU), the Kd (s2U at position 34, poly(A)-programmed, also bound poly(AG)-programmed, 20 mM MgCl2) is reported as 176 nM.
native E. coli tRNALys(SUU) was tested, and the Kd (native modifications incl. mnm5s2U34, poly(A)-programmed, 20 mM MgCl2, 100 mM NH4Cl, pH 7.2, 37 C then ice) was 70 nM.
native yeast tRNAPhe(GmAA) was tested, and the Kd (native modifications incl. Gm34, poly(U)-programmed, 20 mM MgCl2) was 103 nM.
yeast ASLPhe(GAA) gave a Kd (poly(U)-programmed, 20 mM MgCl2) of 136 nM.
